# In patent US20230201357, “D-DIMER-SPECIFIC APTAMERS AND METHODS OF USE IN DIAGNOSTICS, THERAPEUTIC AND THERANOSTIC PURPOSES” (APTAMER DIAGNOSTIC, INC., published 2023):
# Experiments:
# [1] = target: T1, Fibrinogen (UniProt P02671-2;P02675;P02679-2 P02671-2:20-644,P02675:31-491,P02679-2:27-437); assay: ELONA; 25 nM aptamer, immobilized fibrinogen; low D-dimer plasma also negative; conditions: chain copies: 2; label: 3' biotin
# Experimental: (§1) 25 nM of either 3′ Bioitnilated ADI1701, Truncation 1, Truncation 2, Truncation 3, Truncation 4, Truncation 5, scrambled sequence 1, scrambled sequence 2 and scrambled sequence 3 was incubated with D-Dimer protein immobilized on a 96 well ELISA plate. As a control, 3′ Biotin-ADI1701 was incubated with fibrinogen or two plasma samples from donors with low D-Dimer levels (<200 ng/ml) immobilized on the plate. Absorbance was measured after incubation with streptavidin horse radish peroxidase bound to the biotinylated aptamer in the presence of the substrate 3,3′,5,5′-Tetramethylbenzidine (TMB). […] Deleting three or five bases from the 5′ end of ADI1701 decreased the binding to D-dimer by 33%. […] The values shown are subtracted from the absorbance measured in the presence of albumin that was used as the blank.
# (§2) Various truncations were made to the 3′ Biotinylated-ADI1701 aptamer from the 5′ and 3′-ends. Deleting as little as 3 bases from the 5′-end or 5 bases from the 3′-end affected the binding of ADI1701 to D-dimer (FIG. 7). Again, none of the scrambled sequences with Biotin label on either the 5′ or 3′-ends presented any binding to D-dimer.
# [2] = target: T2, D-dimer (cross-linked fibrin degradation product) (Homo sapiens, UniProt P02671;P02675;P02679 SEQ:1-87,SEQ:1-328,SEQ:1-324); assay: SPR; SPRi, biotinylated aptamer on streptavidin gold, 10 nM D-dimer in flow; ka 2.0e6, kd 0.0048 per s; conditions: tags: none stated; about 180 kDa; chain copies: 2 of each chain (inferred); label: 3' biotin
# Experimental: Interaction between ADI1701 and D-dimer was analyzed by a SPR device, Openplex SPRi system from Horiba Scientific. Various amounts of ADI1701 (5 fmol, 50 fmmol and 500 fmol) were immobilized on a gold sensor chip, and D-dimer (10 nM) was injected to the flow cell, and ScrubberGen Ver. 2.0g software was used to subtract the references. […] Nonspecific binding of D-dimer to ADI1701scram was subtracted at the respective concentrations.
# Further studies on the specificity and affinity of binding of ADI1701 to D-dimer were performed using Surface plasmon resonance (SPR). SPR has become an important optical bio-sensing technology in the areas of biochemistry, biology, and medical sciences because of its real-time, label-free, and noninvasive nature. Various amounts of biotinylated ADI1701 were immobilized on streptavidin coated gold surface and D-dimer to flow through. It is shown herein that ADI1701 binds directly to D-Dimer (FIG. 8).
# [3] = target: T2, D-dimer (cross-linked fibrin …); assay: ELONA; estimated from saturation curve; text says 5' biotin, FIG. 6 legend says 3' biotin; conditions: tags: none stated; about 180 kDa; chain copies: 2 of each chain (inferred); label: 5' biotin
# [4] = target: T2, D-dimer (cross-linked fibrin …); assay: ELONA; 25 nM; conditions: tags: none stated; about 180 kDa; chain copies: 2 of each chain (inferred); label: biotin (5' or 3')
# Experimental: as §1, §2
# [5] = target: T2, D-dimer (cross-linked fibrin …); assay: latex bead agglutination; seen at lower concentration than with fibrinogen; conditions: tags: none stated; about 180 kDa; chain copies: 2 of each chain (inferred)
# Experimental: (§3) FIGS. 10A and 10B show photomicrographs of Latex-Aptamer Beads at Different Preparations and at Two Extreme Levels of D-Dimer Concentration. […] The well concentration of the proteins are (serial dilution from left to right, per 150 uL total well volume): 10 nM, 5 nM, 2.5 nM and 1.25 nM of D-Dimer; 10 nM, 5 nM, 2.5 nM and 1.25 nM of Fibrinogen; 750 nM, 375 nM, 188 nM and 94 nM of the BSA. (Ref: NB3, p 19-20, Aug. 29, 2017). 50 ul of aptamer conjugated to the latex beads were added to each well.
# (§4) FIG. 10 represents an image of the wells section of a 96-well plate with the initial testing of coagulation.
# [6] = target: Bovine serum albumin (Bos taurus, UniProt P02769 P02769:25-607); assay: latex bead agglutination, no agglutination at highest BSA amount
# Experimental: as §3, §4
# [7] = target: T1, Fibrinogen; assay: EMSA; native PAGE, no band overlapping fibrinogen; conditions: chain copies: 2
# T2 sequence (P02671 130-216, chain 1 of 3): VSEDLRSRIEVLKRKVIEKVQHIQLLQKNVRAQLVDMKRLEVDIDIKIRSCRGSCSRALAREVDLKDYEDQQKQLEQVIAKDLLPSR
# T2 sequence (P02675 164-491, chain 2 of 3): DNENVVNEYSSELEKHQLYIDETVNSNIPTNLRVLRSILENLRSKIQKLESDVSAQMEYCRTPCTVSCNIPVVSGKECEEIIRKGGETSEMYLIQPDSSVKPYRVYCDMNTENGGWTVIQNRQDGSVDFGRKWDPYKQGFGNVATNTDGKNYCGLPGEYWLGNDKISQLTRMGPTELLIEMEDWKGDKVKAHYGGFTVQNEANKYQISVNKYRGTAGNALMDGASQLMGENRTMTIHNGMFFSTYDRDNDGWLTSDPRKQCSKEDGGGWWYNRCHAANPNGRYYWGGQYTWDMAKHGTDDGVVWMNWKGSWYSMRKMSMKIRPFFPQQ
# T2 sequence (P02679 other isoform, or with tags, fused parts or gaps, chain 3 of 3): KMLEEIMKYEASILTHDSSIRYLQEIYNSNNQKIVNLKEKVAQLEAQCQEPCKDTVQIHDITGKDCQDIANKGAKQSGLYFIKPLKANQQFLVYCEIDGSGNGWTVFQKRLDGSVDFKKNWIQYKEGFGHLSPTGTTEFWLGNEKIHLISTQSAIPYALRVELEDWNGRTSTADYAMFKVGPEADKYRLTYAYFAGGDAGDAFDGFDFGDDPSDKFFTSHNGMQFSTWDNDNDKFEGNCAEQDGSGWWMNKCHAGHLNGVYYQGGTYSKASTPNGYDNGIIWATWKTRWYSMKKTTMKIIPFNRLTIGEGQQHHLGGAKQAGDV
# T1 sequence (P02671 other isoform, or with tags, fused parts or gaps, chain 1 of 3): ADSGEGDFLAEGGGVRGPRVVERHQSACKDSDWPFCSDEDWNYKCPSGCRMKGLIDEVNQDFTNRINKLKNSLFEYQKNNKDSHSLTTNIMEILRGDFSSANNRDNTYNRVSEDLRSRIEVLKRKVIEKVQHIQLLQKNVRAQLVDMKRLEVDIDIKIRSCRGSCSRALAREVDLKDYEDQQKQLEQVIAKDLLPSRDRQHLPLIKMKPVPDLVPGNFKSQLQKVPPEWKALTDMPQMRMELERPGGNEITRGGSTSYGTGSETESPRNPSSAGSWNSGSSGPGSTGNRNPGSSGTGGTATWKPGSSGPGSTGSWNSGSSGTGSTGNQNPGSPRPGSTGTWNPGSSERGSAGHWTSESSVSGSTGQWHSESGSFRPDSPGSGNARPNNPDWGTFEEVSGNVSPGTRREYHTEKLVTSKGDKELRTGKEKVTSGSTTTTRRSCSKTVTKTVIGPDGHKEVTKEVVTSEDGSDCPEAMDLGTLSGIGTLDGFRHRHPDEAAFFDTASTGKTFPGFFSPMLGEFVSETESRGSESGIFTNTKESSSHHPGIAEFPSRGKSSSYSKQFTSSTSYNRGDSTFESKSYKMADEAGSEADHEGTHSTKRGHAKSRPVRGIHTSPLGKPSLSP
# T1 sequence (P02675 31-491, chain 2 of 3): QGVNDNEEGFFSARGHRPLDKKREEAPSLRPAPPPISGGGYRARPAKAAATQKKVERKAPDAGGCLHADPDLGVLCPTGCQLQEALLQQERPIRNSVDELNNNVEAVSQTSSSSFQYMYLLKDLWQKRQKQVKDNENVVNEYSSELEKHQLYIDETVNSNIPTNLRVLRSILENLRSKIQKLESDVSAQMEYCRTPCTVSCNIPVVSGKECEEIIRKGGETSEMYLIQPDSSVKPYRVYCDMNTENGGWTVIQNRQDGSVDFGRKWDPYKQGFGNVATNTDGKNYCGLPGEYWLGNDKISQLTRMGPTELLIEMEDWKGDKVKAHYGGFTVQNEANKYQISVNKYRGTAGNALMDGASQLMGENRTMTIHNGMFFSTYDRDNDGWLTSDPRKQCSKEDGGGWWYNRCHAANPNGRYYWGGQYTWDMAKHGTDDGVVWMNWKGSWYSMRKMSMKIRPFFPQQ
# T1 sequence (P02679 other isoform, or with tags, fused parts or gaps, chain 3 of 3): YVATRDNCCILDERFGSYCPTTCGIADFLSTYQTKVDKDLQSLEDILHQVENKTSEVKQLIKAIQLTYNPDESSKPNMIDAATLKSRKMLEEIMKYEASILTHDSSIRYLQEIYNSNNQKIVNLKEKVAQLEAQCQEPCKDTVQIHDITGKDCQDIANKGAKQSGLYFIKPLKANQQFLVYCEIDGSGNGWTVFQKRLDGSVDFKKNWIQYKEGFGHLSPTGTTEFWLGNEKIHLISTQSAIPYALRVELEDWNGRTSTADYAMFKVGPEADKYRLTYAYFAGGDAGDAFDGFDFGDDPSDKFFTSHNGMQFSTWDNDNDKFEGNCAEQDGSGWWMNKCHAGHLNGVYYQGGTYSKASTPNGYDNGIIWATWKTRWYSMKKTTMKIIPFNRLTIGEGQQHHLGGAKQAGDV
# Sequence of Bovine serum albumin (P02769 25-607, one chain of several): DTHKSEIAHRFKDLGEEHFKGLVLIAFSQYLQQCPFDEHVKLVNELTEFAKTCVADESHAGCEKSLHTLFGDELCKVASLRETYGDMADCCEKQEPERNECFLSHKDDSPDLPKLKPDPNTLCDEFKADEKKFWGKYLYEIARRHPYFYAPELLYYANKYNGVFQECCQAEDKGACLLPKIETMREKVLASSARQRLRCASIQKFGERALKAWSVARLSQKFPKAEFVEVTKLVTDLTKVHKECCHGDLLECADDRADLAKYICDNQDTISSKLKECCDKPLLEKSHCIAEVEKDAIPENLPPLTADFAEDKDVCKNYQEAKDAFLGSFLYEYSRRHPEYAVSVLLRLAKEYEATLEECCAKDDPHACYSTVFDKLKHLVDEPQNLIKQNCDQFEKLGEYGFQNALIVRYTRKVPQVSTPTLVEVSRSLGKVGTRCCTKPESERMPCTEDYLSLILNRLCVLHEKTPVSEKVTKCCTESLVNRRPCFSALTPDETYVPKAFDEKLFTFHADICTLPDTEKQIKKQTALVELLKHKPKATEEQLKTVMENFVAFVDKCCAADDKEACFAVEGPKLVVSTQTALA
binder,measurement,setting,value
GCGCGGTCCCGATTTGGTGTAAAATTCCCTCAGCCCTACA (ssDNA) [3'Biotin-ADI1701],binding result,[1],no binding
same,Kd,[2],2.5 nM
GCGCGGTCCCGATTTGGTGTAAAATTCCCTCAGCCCTACA (ssDNA) [5'Biotin-ADI1701],Kd,[3],~10 nM
TTGTTAGATACTCGCTCTCATCCGCCGTACAACTGGCCAG (ssDNA) [Scrambled Sequence 1],binding result,[4],no binding
ACTACCGATGCGGACTTATCCGCACGTACCGCTATTGTAG (ssDNA) [Scrambled Sequence 2],binding result,[4],no binding
"GCGCGGTCCCGATTTGGTGTAAAATTCCCTCAGCCCTACA (ssDNA, NH2-C6 linker, latex conjugate) [ADI1701-latex (NH2-C6-ADI1701 coupled to beads)]",binding result,[5],binds
same,binding result,[6],no binding
GCGCGGTCCCGATTTGGTGTAAAATTCCCTCAGCCCTACA (ssDNA) [ADI1701],binding result,[7],no binding
